Experimental findings from the Immune Epitope Database (IEDB) are described below.

A value given as a limit tells only on which side of the number the result lay.

One experiment has as its target HLA-B*08:01. As to the kind of experiment: IEDB peptide-MHC binding, purified MHC/competitive/fluorescence; ≥ and ≤ were set here for values at or beyond the usual limits of such assays.
Another experiment concerns the target HLA-C*05:01. Kind of experiment: IEDB peptide-MHC binding, purified MHC/direct/fluorescence; filed as Kd, often an IC50 or EC50 that approximates it; ≥ and ≤ were set here for values at or beyond the usual limits of such assays. As to conditions: source organism: Influenza A virus (A/chicken/Fujian/25/00(H9N2)).
A further experiment addresses HLA-C*06:02. Described as above. To be noted: source organism: Influenza A virus (A/chicken/Fujian/25/00(H9N2)).
The target in the next experiment is HLA-C*07:02. The description is as above.
The target of experiment [1] is HLA-A*02:01. As to the kind of experiment: IEDB peptide-MHC binding, purified MHC/competitive/fluorescence; filed as Kd, often an IC50 or EC50 that approximates it; ≥ and ≤ were set here for values at or beyond the usual limits of such assays.
The target of experiment [2] is HLA-A*02:01. Kind of experiment: IEDB peptide-MHC binding, purified MHC/competitive/fluorescence; ≥ and ≤ were set here for values at or beyond the usual limits of such assays. As to conditions: source organism: Zaire ebolavirus.
Experiment [3] addresses HLA-A*24:02. The experiment is described as above. To be noted: source organism: Zaire ebolavirus.
Experiment [4] has as its target HLA-B*15:01. The experiment is described as above. As to conditions: source organism: Zaire ebolavirus.
The target in the next experiment is HLA-C*12:03. As to the kind of experiment: IEDB peptide-MHC binding, purified MHC/direct/fluorescence; filed as Kd, often an IC50 or EC50 that approximates it; ≥ and ≤ were set here for values at or beyond the usual limits of such assays. To be noted: source organism: Homo sapiens.
The target in experiment [5] is HLA-A*02:01. Kind of experiment: IEDB peptide-MHC binding, purified MHC/competitive/radioactivity; ≥ and ≤ were set here for values at or beyond the usual limits of such assays.
The target in experiment [6] is HLA-A*24:02. As to the kind of experiment: IEDB peptide-MHC binding, purified MHC/direct/fluorescence; filed as Kd, often an IC50 or EC50 that approximates it; ≥ and ≤ were set here for values at or beyond the usual limits of such assays.
Experiment [7] concerns the target HLA-A*11:01. As to the kind of experiment: IEDB peptide-MHC binding, purified MHC/competitive/fluorescence; filed as Kd, often an IC50 or EC50 that approximates it; ≥ and ≤ were set here for values at or beyond the usual limits of such assays. To be noted: source organism: Listeria monocytogenes serotype 4b str. CLIP 80459.
Experiment [8] concerns the target HLA-A*31:01. Described as above. As to conditions: source organism: Listeria monocytogenes serotype 4b str. CLIP 80459.
A further experiment deals with HLA-A*68:23. The experiment is described as above. As to conditions: source organism: Listeria monocytogenes serotype 4b str. CLIP 80459.
A further experiment addresses HLA-B*15:42. The description is as above. As to conditions: source organism: Listeria monocytogenes serotype 4b str. CLIP 80459.
Another experiment addresses HLA-B*45:06. The description is as above. As to conditions: source organism: Listeria monocytogenes serotype 4b str. CLIP 80459.
A further experiment concerns the target HLA-B*83:01. The experiment is described as above. To be noted: source organism: Listeria monocytogenes serotype 4b str. CLIP 80459.
Another experiment concerns the target HLA-C*14:02. As to the kind of experiment: IEDB peptide-MHC binding, purified MHC/direct/fluorescence; filed as Kd, often an IC50 or EC50 that approximates it; ≥ and ≤ were set here for values at or beyond the usual limits of such assays. To be noted: source organism: Human herpesvirus 4 strain B95-8.
The target of a further experiment is HLA-A*01:01. Described as above.
The target of experiment [9] is HLA-A*02:01. The experiment is described as above.
A further experiment addresses HLA-A*03:01. The experiment is described as above.
Experiment [10] deals with HLA-A*31:01. The experiment is described as above.
Another experiment deals with HLA-B*07:02. The experiment is described as above.
Experiment [11] concerns the target HLA-B*15:01. The description is as above.
In another experiment the target is HLA-B*27:05. The description is as above.
A further experiment has as its target HLA-B*39:01. The experiment is described as above. As to conditions: source organism: Mycobacterium tuberculosis str. Haarlem.
A further experiment deals with HLA-B*44:02. The description is as above.
The target of another experiment is HLA-B*46:01. The description is as above.
A further experiment addresses HLA-B*57:01. The description is as above. To be noted: source organism: Mycobacterium tuberculosis str. Haarlem.
The next experiment concerns the target HLA-B*58:01. Described as above.
Experiment [12] concerns the target HLA-A*11:01. The description is as above.
For the next experiment, the target named is HLA-A*26:01. The description is as above. As to conditions: source organism: Vibrio vulnificus CMCP6.
The next experiment deals with HLA-A*69:01. The experiment is described as above. To be noted: source organism: Vibrio vulnificus.
The target in a further experiment is HLA-B*15:09. The description is as above.
For the next experiment, the target named is HLA-B*40:01. The description is as above.
A further experiment addresses HLA-B*08:02. The experiment is described as above. To be noted: source organism: Giardia lamblia ATCC 50803.
A further experiment has as its target HLA-B*18:01. The experiment is described as above. To be noted: source organism: Giardia lamblia ATCC 50803.
In another experiment the target is HLA-A*68:02. As to the kind of experiment: IEDB peptide-MHC binding, purified MHC/competitive/fluorescence; filed as Kd, often an IC50 or EC50 that approximates it; ≥ and ≤ were set here for values at or beyond the usual limits of such assays. As to conditions: source organism: Campylobacter jejuni subsp. jejuni 81-176.
The next experiment deals with HLA-A*02:06. Described as above. To be noted: source organism: Burkholderia orbicola.
[13] abbreviates: source organism: Zaire ebolavirus.
The mark [14] stands for this setting: source organism: Influenza A virus (A/chicken/Fujian/25/00(H9N2)).
[15] abbreviates: source organism: Mycobacterium tuberculosis str. Haarlem.
[16] abbreviates: source organism: Vibrio vulnificus.
The mark [17] stands for this setting: source organism: Giardia lamblia ATCC 50803.

What is called IC50 is the midpoint of a concentration-inhibition curve. Sequence SGKNIKRTL had an IC50 with HLA-B*08:01 (setting [13]) of 63.6 µM.
A word on the Kd: it is a measure of binding affinity in units of concentration. A lower Kd goes with higher affinity. Regarding WMMAMRYPI, the Kd with HLA-C*05:01 is not below 20 µM; in the experiment with HLA-C*06:02 it was not below 20 µM; with HLA-C*07:02 (setting [14]), 1.84 µM; with HLA-A*02:01 [1] (setting [14]) it was 0.0002 µM.
In the experiment with HLA-C*07:02 (source organism: Saccharomyces cerevisiae), VRKCLQLIF returned a Kd of 0.053 µM.
With SFKAALSSL, the IC50 was not below 358 µM with HLA-A*02:01 [2], 0.668 µM with HLA-A*24:02 [3], 45.6 µM with HLA-B*08:01 (setting [13]) and 15.2 µM with HLA-B*15:01 [4].
Regarding FLLENAAYL, the Kd amounted to 0.354 µM with HLA-C*07:02 (source organism: Homo sapiens) and 0.291 µM with HLA-C*12:03.
In the case of FLPNDFFPSV, in the experiment with HLA-A*02:01 [5] (source organism: Hepatitis B virus), the IC50 came out at 0.0011 µM.
Sequence ISPRNYFTF had a Kd in the experiment with HLA-A*24:02 [6] (source organism: Toxoplasma gondii) not above 0.001 µM.
With YTYDLAEYR, the Kd is 0.0213 µM in the experiment with HLA-A*11:01 [7]; 0.0083 µM with HLA-A*31:01 [8]; not above 0.0001 µM in the experiment with HLA-A*68:23; not below 5 µM with HLA-B*15:42; not below 5 µM in the experiment with HLA-B*45:06; not below 5 µM with HLA-B*83:01.
As for TVFYNIPPM, in the experiment with HLA-C*14:02, the Kd was 0.003 µM.
As to FHARFVQAL, the Kd in the experiment with HLA-A*01:01 (setting [15]), with HLA-A*02:01 [9] (setting [15]), in the experiment with HLA-A*03:01 (setting [15]), in the experiment with HLA-A*31:01 [10] (setting [15]), with HLA-B*07:02 (setting [15]) and in the experiment with HLA-B*15:01 [11] (setting [15]) was not below 20 µM in each case. In addition, the Kd with HLA-B*27:05 (setting [15]) was not below 20 µM; with HLA-B*39:01 it was 0.0556 µM; in the experiment with HLA-B*44:02 (setting [15]), not below 20 µM; with HLA-B*46:01 (setting [15]) it was not below 20 µM; in the experiment with HLA-B*57:01, not below 20 µM; with HLA-B*58:01 (setting [15]) it was not below 20 µM.
Take QSDIAGAIH: the Kd is 1.66 µM in the experiment with HLA-A*01:01 (setting [16]); not below 20 µM in the experiment with HLA-A*02:01 [9] (setting [16]); not below 20 µM in the experiment with HLA-A*03:01 (setting [16]); not below 20 µM in the experiment with HLA-A*11:01 [12] (setting [16]); not below 20 µM with HLA-A*24:02 [6] (setting [16]); not below 20 µM with HLA-A*26:01. The Kd with HLA-A*31:01 [10] (setting [16]), with HLA-A*69:01, with HLA-B*07:02 (setting [16]), in the experiment with HLA-B*15:01 [11] (setting [16]), with HLA-B*15:09 (source organism: Vibrio vulnificus CMCP6) and with HLA-B*27:05 (setting [16]) was not below 20 µM throughout. The dissociation constant Kd with HLA-B*40:01 (setting [16]), in the experiment with HLA-B*44:02 (setting [16]), with HLA-B*46:01 (setting [16]) and with HLA-B*58:01 (setting [16]) was not below 20 µM in each case.
Take MIYELCTFR: the Kd with HLA-A*01:01 (setting [17]) is not below 20 µM; with HLA-A*02:01 [9] (setting [17]) it was not below 20 µM; in the experiment with HLA-A*03:01 (setting [17]) it was 0.844 µM; with HLA-B*07:02 (setting [17]), not below 20 µM; in the experiment with HLA-B*08:02, not below 20 µM; with HLA-B*15:01 [11] (setting [17]), not below 20 µM. In addition, the dissociation constant (Kd) in the experiment with HLA-B*15:09 (setting [17]), in the experiment with HLA-B*18:01, with HLA-B*27:05 (setting [17]), with HLA-B*40:01 (setting [17]), in the experiment with HLA-B*44:02 (setting [17]) and in the experiment with HLA-B*58:01 (setting [17]) was not below 20 µM in each case.
Take KLIDRTESL: the IC50 with HLA-A*02:01 [5] (source organism: Homo sapiens) came to 0.102 µM.
For the sequence VLEKGIPTL, in the experiment with HLA-A*02:01 [5] (source organism: Rhinovirus A), the IC50 was 0.2 µM.
With KRVDWSVEY, the Kd in the experiment with HLA-A*11:01 [12] (source organism: SARS-CoV1) amounted to 8.74 µM; in the experiment with HLA-B*15:01 [11] (source organism: SARS-CoV1), 2.72 µM; with HLA-B*27:05 (source organism: SARS-CoV1) it was 0.258 µM; with HLA-C*07:02 (source organism: SARS-CoV1), 0.261 µM.
In turn, MLYQLLEAV had an IC50 in the experiment with HLA-B*08:01 (source organism: Vaccinia virus Copenhagen) not below 303 µM.
Take HVDIRTLED: the IC50 with HLA-A*02:01 [5] (source organism: Human papillomavirus 16) worked out at 25 µM.
Take RGVRLHPLA: the IC50 in the experiment with HLA-A*02:01 [2] is not below 87.8 µM; with HLA-B*08:01 (setting [13]), not below 242 µM.
Consider SAICSVVRR, for which the IC50 with HLA-A*02:01 [5] (source organism: Hepatitis B virus subtype adw2) is 1.43 µM.
For the sequence LYLYVPFLW, the Kd with HLA-A*24:02 [6] (source organism: Bacillus cereus 03BB108) came out at 0.055 µM.
As for SVAHSAYEL, in the experiment with HLA-A*68:02, the Kd is not above 0.0001 µM.
Regarding MQACPVDAI, the figures for the Kd with HLA-A*02:01 [1] (source organism: Burkholderia orbicola) and with HLA-A*02:06 were 0.0086 µM and 0.0013 µM, respectively.
